According to article PMC4552821 (2015):
Like-named read-outs stand apart in the source and are kept apart here.

Experiments:
[1] = target: T1, kerateine (reduced hair keratin extract) (Homo sapiens, UniProt Q15323); test: SPR
[2] = target: T1, kerateine (reduced hair keratin extract); test: SPR; remark: listed apart in the source

Kd [1]: 32 µM
Kd [2]: 0.11 µM
B1: BMP-2 (protein)
chain: QAKHKQRKRLKSSCKRHPLYVDFSDVGWNDWIVAPPGYHAFYCHGECPFPLADHLNSTNHAIVQTLVNSVNSKIPKACCVPTELSAISMLYLDENEKVVLKNYQDMVVEGCGCR
